The source of these data is patent JP2023092810A (dated 2023).

Substitutions are numbered along the chain they refer to. In names and notes the source's numbering stands.

This assay concerns the target プロテインA (rProtein A Sepharose Fast Flow) (UniProt P38507 37-327). The assay is described as follows: rProtein A Sepharose Fast Flow column, fractions on SDS-PAGE.

B1: OKT3 scFv (scFv, V domains shown)
VH: QVQLVQSGGGVVQPGRSLRLSCKASGYTFTRYTMHWVRQAPGKGLEWIGYINPSRGYTNYNQKVKDRFTISRDNSKNTAFLQMDSLRPEDTGVYFCARYYDDHYSLDYWGQGTPVTVSS
notes: Made in E. coli; also called OKT3 scFv(コントロール); 変異導入前のOKT3 scFv; not shown: linker, VL of OKT3 (OL) and any tag
On to B1, for which the binding result is recorded as “no binding”.

B2: OKT3 scFv-D65N/D82aN (scFv, name in Kabat numbering, V domains shown)
VH: B1 VH with D66N, D84N
notes: not shown: linker, VL of OKT3 (OL) and any tag
On to B2, for which the binding result is listed as “no binding”.

B3: OKT3 scFv-D65A/D82aN (scFv, name in Kabat numbering, V domains shown)
VH: B1 VH with D66A, D84N
notes: as for B2
For B3, the binding result is on record as “no binding”.
